Data taken from the nanobody polyreactivity screen of Harvey et al. (2022).

Experiment: yeast display, Sf9 membrane polyspecificity reagent, FACS + sequencing; frameworks hold sequencing errors
How it was run: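 Using colony PCR, genes from sorted yeast display clones were amplified, then sequenced on MiSeq at 2 × 250 and filtered by CDR length. The clones had been stained with 10% biotinylated, detergent-solubilized Sf9 membrane reagent for 1 hour at 4 °C and sorted by FACS into low and high (top ~1%) gates on anti-HA and streptavidin fluorescence. Polyreactivity labels come from the gate of origin.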

Sequence	polyreactivity (PSR sort gate)
QVQLVESGGGLVQAGGSLRLSCAASGRIFTFYAMGWYRQAPGKERELVAAISSGGSTYYADSVKGRFTISRDNAKNTVFLQMNILKPEDTAVYYCAAVPVWYADYDYWGQGTQVTVSS	low polyreactivity
QVQLVESGGGLVQAGGSLRLSCAASGRIFPGNAMGWYRQAPGKESELVAAISKSGGSTYYADSVKGRFTISRDNAKNTVYLQMNSLKPEDTAVYYCAKLYYPVSDQYDYYYWGQGTQVTVSS	low polyreactivity
QVQLVESGGGLVQAGGSLRLCCAASGSTFYFYTMGWYRQAPGKERELVAAIRDSGSSTDYADSVKGRFTISRDNAKNTVYLQMNSLKPEATAVYYCAAEYNFPEFPWGGEYDYWGQGTQVTVSS	low polyreactivity
QVQLVESGRGLVQAGGSLRLSCAASGITFGYYDMGWYRQAPGKERELVAAIDWTGGGTYYADSVKGRFTISRDYAKNTVYLQMNSVKPVDTAVYYCIDHAGGDSGVSYYPEYDYWGQGTQVTLSS	low polyreactivity
QVQLVESGGGLVQAGGSLRLSCPAYGSIFEGHGMGWYRQAPGKEREMVAAITFRSGSTYYADSVKWRFTISRDNAKNTVYLQINSLKPDDTAVYYCAADEYYQVSAYDYWGQGTQVTVSS	low polyreactivity
QVQLVESGGGLVQAGGSLRLSCAASGRTFTTNAMGWYRQAPGKERELVAAISRRGGSTYYADSVKGRFTISRDNAKNTVYLQMNSLKPEDTAVYYCYAHLWIRGYDYWGQGTQVTVSS	high polyreactivity
QVQLVESGGGLVQPGGSLRLSCAASGFTFSKYAMGWYRQAPGKERELVAAISRSAGSTYYADSVKGRFTISRDNAKNTVYLQMNSLKPEDTAVYYCARDNPRRPSGYNYWGQGTQVTVSS	high polyreactivity
QVQLVESAGGLVQAGGSLSLSCAASGGMFTGYAMGWDRQAPGTERELVAAINTGGNTYYADSVKGRFTISRDNAKNTVYLQMNSLKPEDTAVYYCAAVYFPRSNTARRYGYWGQGTQVTVSS	high polyreactivity
QVQLVESLGGLVQAGGSLRLSFAASGFIFAKYAIGWYRKAAGKERELVAAITSGGSTNYADSVKGRFTISRDNAKNTVFLQMNSLKPEDTAVYYCNRGFDWCYRYRHYDYCGQGTQVTVSS	low polyreactivity
QVQLVESGGGLVQAGCSLRLSCAASGSTLSFNAMGWYRQAPGKERELVAGITYSGGSTYYADSVKGRFTISRDNAKNTVYLLMNSLKPEDTAFYYCNKACGVYYGHLDYWGQGTQVTVSS	low polyreactivity
QVQLVESGGGLVQAGGSLRLSCAASGLTFSGNVMGWYRQAPGKERELVAAIDRSGGSTYYADSVKGRFTISRDNAKNTVYLQMNSLKPEDTAVYYCAVSSYPNHSRSWDDYWGQGTQVTVSS	low polyreactivity
QVQLVESGGGLVQPGGSLRLSCAASGIIFRYYAMGWYRQAPGKERELVAAITWSGGSTYYADSVKGRFTISRDNAKNTVYLQMNRLKPEDTAVFDCAADWWSVRGYAVDYWGQGTQVTVSS	high polyreactivity
QVQLVESGGGLVQAGGSLRLSCAASGRTFGYYAMGWYRQAPGKERELVAAISSRGGSTYYADSVKGRFTISRDNAKNTVYLQMNSLKPEDTAVYYCNTRWTNIHPRYDYWGQGTQVTVSS	high polyreactivity
QVQLVESGGGLVQAGGSLRLSCAASGSIFVGYAMGWYRQAPGKERELVAAIRWSGGSTYYADSVKGRFTISRDNAKNTVYLQMNSLKPEDTAVYYCAKYFPAGYYYWGQGTQVTVSS	low polyreactivity
QVQLVESGGGLVQAGGSLRLSCAASGFTFVRNTMGWYRQAPGKERELVAAISRSGGSTYYADSVKGRFTISRDNAKNTVYLQMNSLKPEDTAVYYCNAYRYVHYDWGQGTQVTVSS	high polyreactivity
QVQLVESGGVLVQSGGSLRLSCAASGITLSRYAMGWYRQAPGKERELVAAISRRGGSTYYADSVKGRFTISRDNAKNSVYLQLNSLKPEDTAVDYCAATRYASLSDSGFNYWGQGTQVTVSS	high polyreactivity
QVQLVESGGGLVQAGGSLRLSCSASVRTFYRNSMGWYRQAPGKEREFVAVISVSGGSTYYADSVKGRFTISRDNAKNTVYLQMNSLKPEDTAVYYCAADEYYTFSSFELRRMDYWGQGTQVTVSS	low polyreactivity
QVQLVESGGGLVQAGGSLRLSCAASGSTFNVNAMGWYRQAPGKERELVAAISSDGITNYADSVKRRFTISRDNAKNTVYLQMNSLKPEDTAVYYCNADWTDGDWADMDYWGQGTQVTVSS	low polyreactivity
HVQLVESGGGLVQAGGSLRLSCAASGGIFVYYAMGWYRQAPGKVRELVAAISRSAASTYYADSVKGRFTISRDNAKNTVYLQMNSLKPEDTADYYCAAGQLTDKGGGDSWGQGTQVTVSS	low polyreactivity
QDQLVESGGGLVPAVGSLRLTCAASGYTFWDYTMGLYRQAPGKERELGAAMSSSGSSTYYADSVKGRFTISRDNAKNTVYLQMNSLKPEDNAVYYCAAYSRRQWKYDYWGQGTHVTVSS	high polyreactivity
QVQLVESGGGLVQAGGSLRLSCAASGRIFDRYAMGWYRQAPGKERELVAVITGGTGNTYYADSVKGRFTISRDNAKNTVYLQMNSLKPEDTAVYYCNARGGYYKFRYPLYYWGQGTQVTVSS	high polyreactivity
HVPLVESGGGLVQAGGSLRLSCAASGFTFRANGMGWYRQAPGKERELVATIPSGGTTNYADSVKGRFTISRDNAKKTVYLQMNSLKPEDNAVYDCAASLGANGFQGRMYYWGQGTQVTVSS	low polyreactivity

Sequence	polyreactivity (PSR sort gate)
QVQLVESGGGLVQAGGSLRLSCAASGRSFEVYVMGWYRQAPGKERELVAAISTGGSTYYADSVKGRFTISRDNAKNTVYLQMNSLKPEDTAVYYCAAKRTGNGYPRSGYSRYEYWGQGTQVTVSS	high polyreactivity
QVQLVESGGGLVQAGGSRRLSCAASGLIYWYAMGWYRQAPGKERELVAAISSNGGSTYYADSVKGRFTISRDNAKNTVYLQMNSLKPEDTAVYYCAVTSFGYSVLERDYWGQGTQVTVSS	low polyreactivity
QVQLVESGGGLVQAGGSLRLSCAASGFTFSKYAMGWYLQAPGKERELVAAISRRGGSTYYADSVKGRFTISRDNAKNTVYLQMNSLKPEDTAVYYCAARYSVGTGYGYWGQGTQVTVSS	high polyreactivity
QVQLVESGGGLVQAGGSLRLSCAASGRTFGSYVMGWYRQAPGKERELVAAISWSSGITYYADSVKGRFTISRDNAKNTVYLQMNSLKPEDTAVYYCAARIWDSRAYYYWGQGTQVTVSS	high polyreactivity
QVQLVESGGGLVQAGGSLRLSCAPSGYIFPEYVMGWYRQSPGKERELVAVITWDGTSTYADSVKGRFTISRDNAKNTVYLQMNSLIPVDTAVYYCAADTNYYVDTAGYGDGLDSWGQGTQVTVSS	low polyreactivity
QVQLVESGGGLVQAGGSLRLSCAASGITFDGYAMGWYRQAPGKERELVAAISISGASTYYADSVKGRFTISRDNAKNTVYLQKNSLKPEDTAVYYCAASSWINQYPGDYWGQGTQVTVSS	high polyreactivity
QVQLVESGGGLVQAGGSLRLSCAASGSTIPYNTMGWYRQAPGKERELVAAISSSCRSTYYADSVKGRFTISRDNAKKTVYLQMNSLKPEDTAVYYCNAQIVASYQARRYYYWGQGTQVTVSS	low polyreactivity
QVQLVESGGCLVQAGGSLRLSCAASVRTYETNAKGWYIQAPGKEREFVAAISSSGASTYYADSVKGSFTISRYNAKNTVYLQMNSLKTEDTAVYYCAARRREWGQGTQVTVSS	low polyreactivity
QVQLVESGGGLVQAGGSLRLSCAASGFTFRRYAMGWYRQAPGQDRELVAAISYRGGTYYADSVKGRFTISRDNAKNTVYLQMNSLKPEDTAVYYCNARYRGKYSSYGYWGQGTQVTVSS	high polyreactivity
QVQIVESGGGLVQAGGSLRLSCAASGRIFTVYGKGWYRQAPGKERELVAAISWSGGGTYYADSVKGRFTISRDNAQNTVYLQKNSLKPDDTAVYYCNADRQYTWSLVFFSSEYDYWGQGTQVTVSS	low polyreactivity
QVQLVESGGGLVQAGGSLRLSCAASGRTFVYYAMGRYRQAPGKERELVAAISGSGGSTYYADSVKGRFTISRDNAKNTVYLQMISLKPEDTAVYYCAAGPRGRYRYGYWGQGTQVTVSS	high polyreactivity
QVQLVESGGGLVKAGGSLRLRCAASGITFRYNAMGWYRQAPGKERELVAAITSSGGRTYYADSVKGRFTISRDNAKNTVYLQMNSLKPEDTAVYYCAARTRYRKEYDYWGQGTQVTVSS	high polyreactivity
QVHLVESGGGLVQAGCSLRLICAASRYIFGYYAMGWYRQAPGKERELVAAISTDGSTDYADSVKVRFTISRYNANNTVDLQMNRLKPEDSALYYCAKELFIVTNGVYIYDSWGEGTQVTVSS	low polyreactivity
QVQLVESGGGLVQAGGILSLSCAASGIIFYTYAMGWYRQAPGKERELVATISWDVDSTNYADSVKGRFTISRDNAKNTVYLQMNSLKPEDTAVYYCAVDYTFDSYWYWVDYYEYGYWGQGTQVTVTS	high polyreactivity
QVQLVESGGGLVQAGGSLRLSCAASRRIFSFNAMGWYRQAPGKDRELVAGSTYGGNTYYADSVKGSFTISRDNAKNTVYLQMNSLKPEDTAVYYCAAVRGGRHDYWGQGTQVTVSS	low polyreactivity
QVQLVESGGGLVQAGGSLRLSCAASGSTFTVYAMGWYRQAPGKERELVAVITGSGGSTYYADSVKGRFTISRDNAKNTVYLQMNSLKPEDTAVYYCAKEPGENWTVSWRDFDYWGQGTQVTVSS	low polyreactivity
QVQLVESGGGLVQAGGSLRLSCAASGRTFRFYTMGWYRQAPGKERELVAAIYWRGSSTYYADSVKGRFTISRDNAKNTVYLQMNSLKPEDTAVYYFAKKSYANEYDYWGQGTQVTVSS	high polyreactivity
QVQLVESGGGLVQAGGSLRLRCAASGRIFGRNAMGWYRQAPGKERELVAAISGGGSTNYADSVKGRFTISRDNAKNTVYLQMKSLKPADTAVYYCAVKQGFYSRALKLYYWGQGTQVTVSS	high polyreactivity
QVQLVESGGGLVQAGGSLRLSCAASGIIFWYYAMGWYRQAPGKERELVAAISSGGSTTYADSVKGRFTISRDNAKNTVYLQMKSLKPEDTAVYYCAAVWLSLFKGWVDTHEYDYWGQGTQVTVSS	low polyreactivity
QVQLVESGGGLVQAGGSLRLSCAASGSTFPYNAMGWYRQAPGKERELVAAITGRGGSTYYADSVKGRFTISRDNAKNTVYLQMNSLKPEDTAVYYCGADFWYSYYYWGQGTQVTVSS	high polyreactivity
QVQLVESGGGLVQAGGSLRLSCAASGSIFPLYDMGWSRQATGKQSELVASITSGDTTNYADSVKGRFTISRDNAKNTVYLQMISLNAEDTAVYYCATDTPTDRYAAYPNDQYYYWGQGTQVTVSS	low polyreactivity
